Experimental data reported in US7425614B2, “Neuroprotective therapeutics preventing ERK/MAPK activation through the NMDA receptor” (Children's Medical Center Corporation, priority 2003, dated 2008).

Experiments:
[1] = target: T1, NR2B/RasGRF1 native complex (Rattus norvegicus, UniProt P28818+Q00960); test: competition co-immunoprecipitation of native NR2B-RasGRF1 complexes from rat brain microsomes; format: binding; conditions: NusA fusion proteins 3-5 μM; 6- to 8-week-old rat brains
T1 construct: from tissue; host or cells: P2 microsomes of 6- to 8-week-old rat brain
T1 sequence (Q00960 27-1482): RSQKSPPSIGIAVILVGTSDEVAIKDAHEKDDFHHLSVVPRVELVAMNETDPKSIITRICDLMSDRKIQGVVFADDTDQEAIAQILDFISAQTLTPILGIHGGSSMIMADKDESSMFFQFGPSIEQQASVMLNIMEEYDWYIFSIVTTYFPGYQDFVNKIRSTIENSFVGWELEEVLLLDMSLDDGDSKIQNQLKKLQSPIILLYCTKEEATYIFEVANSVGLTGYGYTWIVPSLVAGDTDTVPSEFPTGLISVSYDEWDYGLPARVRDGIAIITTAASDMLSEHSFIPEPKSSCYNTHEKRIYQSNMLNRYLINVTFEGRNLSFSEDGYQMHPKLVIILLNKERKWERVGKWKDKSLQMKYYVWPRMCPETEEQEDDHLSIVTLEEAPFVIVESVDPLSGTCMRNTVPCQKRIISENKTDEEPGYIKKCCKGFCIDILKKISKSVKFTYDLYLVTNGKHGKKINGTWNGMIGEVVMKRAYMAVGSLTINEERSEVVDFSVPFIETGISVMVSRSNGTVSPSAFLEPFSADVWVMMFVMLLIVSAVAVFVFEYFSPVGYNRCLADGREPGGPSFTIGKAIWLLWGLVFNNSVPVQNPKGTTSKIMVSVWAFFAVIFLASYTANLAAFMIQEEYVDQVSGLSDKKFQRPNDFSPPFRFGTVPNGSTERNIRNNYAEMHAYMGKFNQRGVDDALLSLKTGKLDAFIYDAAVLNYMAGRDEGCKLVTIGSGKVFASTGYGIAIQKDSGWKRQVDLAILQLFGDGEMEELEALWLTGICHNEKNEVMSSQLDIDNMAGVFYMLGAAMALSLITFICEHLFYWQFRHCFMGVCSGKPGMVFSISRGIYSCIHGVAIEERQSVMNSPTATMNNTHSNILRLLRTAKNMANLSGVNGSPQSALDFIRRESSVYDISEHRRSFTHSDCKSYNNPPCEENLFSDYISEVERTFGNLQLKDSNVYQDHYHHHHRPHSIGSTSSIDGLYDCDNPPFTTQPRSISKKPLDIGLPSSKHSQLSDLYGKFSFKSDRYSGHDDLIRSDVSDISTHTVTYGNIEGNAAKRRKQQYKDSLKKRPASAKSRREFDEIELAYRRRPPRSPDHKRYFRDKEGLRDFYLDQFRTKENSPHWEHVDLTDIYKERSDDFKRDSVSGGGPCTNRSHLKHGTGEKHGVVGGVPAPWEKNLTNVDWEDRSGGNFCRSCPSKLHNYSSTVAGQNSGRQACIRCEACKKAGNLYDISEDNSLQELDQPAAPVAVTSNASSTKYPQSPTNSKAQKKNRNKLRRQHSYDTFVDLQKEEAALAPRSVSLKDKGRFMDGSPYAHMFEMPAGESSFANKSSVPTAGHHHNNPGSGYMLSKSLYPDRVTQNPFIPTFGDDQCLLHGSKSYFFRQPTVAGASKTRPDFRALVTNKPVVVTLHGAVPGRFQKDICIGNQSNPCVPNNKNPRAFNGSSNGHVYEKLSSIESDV
T1 sequence (P28818 whole entry, the tested form may be a part): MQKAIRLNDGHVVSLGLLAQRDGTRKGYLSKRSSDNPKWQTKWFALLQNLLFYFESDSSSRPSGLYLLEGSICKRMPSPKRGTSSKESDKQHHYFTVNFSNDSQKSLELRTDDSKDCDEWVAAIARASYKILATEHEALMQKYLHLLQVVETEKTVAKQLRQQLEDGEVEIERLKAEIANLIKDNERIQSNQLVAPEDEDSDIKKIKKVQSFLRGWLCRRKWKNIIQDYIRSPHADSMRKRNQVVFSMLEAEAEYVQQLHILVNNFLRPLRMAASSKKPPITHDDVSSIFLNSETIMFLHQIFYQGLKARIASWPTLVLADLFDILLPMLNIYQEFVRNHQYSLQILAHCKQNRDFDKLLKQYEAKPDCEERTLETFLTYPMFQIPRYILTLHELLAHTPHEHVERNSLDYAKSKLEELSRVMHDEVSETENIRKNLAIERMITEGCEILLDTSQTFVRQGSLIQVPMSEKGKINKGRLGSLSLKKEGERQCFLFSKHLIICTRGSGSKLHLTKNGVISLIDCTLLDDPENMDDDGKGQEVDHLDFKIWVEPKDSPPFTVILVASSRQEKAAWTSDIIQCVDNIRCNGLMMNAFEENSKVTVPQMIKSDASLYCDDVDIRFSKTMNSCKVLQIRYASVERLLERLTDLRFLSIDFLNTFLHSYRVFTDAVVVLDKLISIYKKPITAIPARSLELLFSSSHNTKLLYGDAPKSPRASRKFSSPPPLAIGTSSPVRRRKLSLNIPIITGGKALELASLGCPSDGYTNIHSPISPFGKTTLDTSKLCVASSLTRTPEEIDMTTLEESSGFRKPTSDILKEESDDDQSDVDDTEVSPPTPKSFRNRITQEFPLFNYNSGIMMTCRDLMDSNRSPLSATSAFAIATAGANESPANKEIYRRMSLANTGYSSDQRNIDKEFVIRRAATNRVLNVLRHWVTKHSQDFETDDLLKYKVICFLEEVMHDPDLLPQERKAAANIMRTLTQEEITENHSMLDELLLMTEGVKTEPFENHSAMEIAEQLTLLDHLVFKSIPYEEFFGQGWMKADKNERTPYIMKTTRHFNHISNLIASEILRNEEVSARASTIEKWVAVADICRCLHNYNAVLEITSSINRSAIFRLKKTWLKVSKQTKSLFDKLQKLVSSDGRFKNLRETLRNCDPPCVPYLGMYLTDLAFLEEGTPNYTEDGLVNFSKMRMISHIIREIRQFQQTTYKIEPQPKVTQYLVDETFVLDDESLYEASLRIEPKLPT
Description: Transfected cells were solubilized in lysis buffer (100 mM Tris-Cl [pH 8.5], 500 mM NaCl, 1% Triton X-100) supplemented with corn plete protease inhibitor (Roche) and immunoprecipitated with NR2B (Santa Cruz, sc-9057), NR1, or NR2A (Chemicon) antibody (5 μg/ml), washed with lysis buffer, separated on SDS gel, and blotted on PVDF. Blots were probed with anti-RasGRF1 (Santa Cruz) and the appropriate NR subunit antibody. 6- to 8-week-old rat brain P2 microsomes were isolated and solubilized as described (Luo, J., et al. (1997) Mol. Pharmacol. 51, 79-86). 80 μg of solubilized protein were immunoprecipitated with NR2B, RasGRF1, or pooled rabbit IgG, and immunoprecipitated proteins were probed on Western blot with RasGRF1 and NR2B antibodies. All immunoprecipitation experiments were only taken as valid if repeated 3-5 times with similar results. Routine negative controls with antigen pre-absorption were carried out for antibodies used in immunoprecipitation experiments. […]
For in vitro binding experiments, equimolar amounts of in vitro translated ^35S-labeled proteins (calculated from radioactivity of the excised protein band and cysteine content in the specific fragment) were incubated with a 3-fold molar excess of translated RasGRF1 for 30 min at 30° C., diluted with RIPA buffer, and immunoprecipitated with anti-HA-agarose (Santa Cruz). […]

[2] = test system: hippocampal neurons; test: Assay I: glutamate excitotoxicity in primary cultures of dissociated hippocampal neurons; format: cell-based, rat; conditions: 20 minute exposure to Glutamate (100 μM) and Glycine (10 μM); expression in neurons; n=5
Description: (A) Survival of hippocampal neurons in culture exposed to Glutamate (100 μM) and Glycine (10 μM) for a 20 minute period. 14 div neuronal cultures were transfected with GFP, NR2B-BD or RasGRF1-BD 24 hours prior to analysis. The neuronal cultures were then incubated with glutamate for 20 minutes, washed with culture media and returned to the incubator for an additional 24 hours. The cells were then fixed with PFA and stained with a neuronal specific antibody, Map2. […] (B) Percentage of propidium iodide-resistant (surviving) neurons in organotypic hippocampal slices (P5+7div) expressing GFP, NR2B-BD or […] in control conditions and after 20 minutes exposure to NMDA (50 μM). The fluorescence of propidium iodide (PI) was measured 24 hours later. PI enters damaged cells and is a convenient tool to determine neuronal cell death. For PI staining, the slices were incubated in culture medium containing 0.1 mg/ml PI for 2 h. GFP, NR2B-BD and […] were expressed using the SindBis expression system. Mean±SEM. N=3.
Assay I: primary cultures of dissociated hippocampal neurons (FIG. 7(A)). This method may be used to analyze the mechanisms of glutamate-dependent excitotoxicity (see e.g., Medina, et al., Eur J Neurosci. (1999) 11(4): 1167-78). Briefly, neuronal cell death was induced by a 20 minute exposure to Glutamate (100 μM) and Glycine (10 μM). […]

co-immunoprecipitation of NR2B and RasGRF1 [1]: completely blocked
B1: NR2B-BD: peptide of amino acids 886-1310 of the NR2B C-terminal domain that binds RasGRF1; used as NusA or EGFP fusion (protein)
chain: SPTATMNNTHSNILRLLRTAKNMANLSGVNGSPQSALDFIRRESSVYDISEHRRSFTHSDCKSYNNPPCEENLFSDYISEVERTFGNLQLKDSNVYQDHYHHHHRPHSIGSTSSIDGLYDCDNPPFTTQPRSISKKPLDIGLPSSKHSQLSDLYGKFSFKSDRYSGHDDLIRSDVSDISTHTVTYGNIEGNAAKRRKQQYKDSLKKRPASAKSRREFDEIELAYRRRPPRSPDHKRYFRDKEGLRDFYLDQFRTKENSPHWEHVDLTDIYKERSDDFKRDSVSGGGPCTNRSHLKHGTGEKHGVVGGVPAPWEKNLTNVDWEDRSGGNFCRSCPSKLHNYSSTVAGQNSGRQACIRCEACKKAGNLYDISKDNSLQELDQPAAPVAVTSNASSTKYPQSPTNSKAQKKNRNKLRRQHSYDTFVDL
modifications: left off: small tags and cut ends
notes: used as NusA or EGFP fusion
decrease of neuronal cell death induced by glutamate and glycine [2]: 47±2%
